{"source": "patent US12599654B2", "about": "“Immunogenic peptide fragments of metalloprotease ADAMTS-7 and uses thereof in anti-atherosclerosis and related diseases” (BEIJING KIMWAY BIOTECH CO. LTD, priority 2019, dated 2026)", "origin": "cited, not measured here", "biological_target": "T1, proprotein convertase subtilisin/kexin type 9 (PCSK9) (Homo sapiens, UniProt Q8NBP7)", "T1 construct": "host or cells: human trial subjects (endogenous circulating PCSK9)", "conditions": "low-dose, phase I clinical trials; cited from earlier work"}
{"substance": "REGN727: monoclonal antibody against the proprotein convertase subtilisin/kexin type 9 (PCSK9)", "values": [{"measurement": "reduction of LDL level of subjects", "value": "more than 30%"}]}
